Measured values: PMC2173742 (The Journal of Cell Biology, 2003)

Tests used:
[1] = molecular target: bovine Taxol-stabilized MTs (bovine) (UniProt Q6B856); experiment: co-sedimentation
[2] = molecular target: the molecule itself; experiment: SEC + other: velocity sedimentation

Kd [1]: 0.3 µM
B1: Ase1p–MYC–6xHis (natural protein, budding yeast, UniProt P50275 1-885, looked up)
chain: METATSSPLPIKSRRNSENSGSTTVIPHMNPSLATPLTVSTMVNQSNSKEFMKLTPVRIRDFGSPLKNVSTNYHFLDSENGKGNTMDNMYRENFILISKDLEKLLENLNVIYQNIGYSNTEIITKEKIIFTTISNSIKQFFEQADEELKRLSAENGIEQDILNNILERINDPSGIKTIPDLYIRNAILLQESKTVPQSPKKPLSLLSKKAALDTAKKFVLGSFLPRLRDYLKSLITLKHLIQSVKENLPGLTEADNEAIAEFPELSTLTAYLLQIENGKGDIGLSMKFIIDNRKDILKGSAFKTINEESVKHMNEVIKIYEEEYERRFKSVLTKKVSISSICEQLGTPLATLIGEDFEQDLRSYGEEENSTSEIPNFHPVDRERMSKIDITLEKLQAIHKERADKKRLLMEQCQKLWTRLKISQEYIKTFMRNNSSLSTESLGRISKEVMRLEAMKKKLIKKLISDSWDKIQELWRTLQYSEESRSKFIIVFEELRNSATTLQEDELLLETCENELKRLEEKLTLYKPILKLISDFESLQEDQEFLERSSKDSSRLLSRNSHKILLTEEKMRKRITRHFPRVINDLRIKLEEADGLFDQPFLFKGKPLSEAIDIQQQEIEAKYPRCRVRMQRSKKGKCGANKENKVIKNTFKATESSIRVPIGLNLNDANITYKTPSKKTIQGLTKNDLSQENSLARHMQGTTKLSSPNRRATRLLAPTVISRNSKGNIERPTLNRNRSSDLSSSPRINHTHGEHAVKPRQLFPIPLNKVDTKGSHIPQLTKEKALELLKRSTGTTGKENVRSPERKSSLEDYAQKLSSPYKEPEHSIYKLSMSPEGKFQLNIQQKDIESGFDDTSMMEDENDKDFITWKNEQVSKLNGFSFTDI
stoichiometry N [2]: 2
